# Data: patent US20150210768A1, “Methods and Compounds for Preventing, Treating and Diagnosing an Inflammatory Condition” (Westfaelische Wilhelms-Universitaet Muenster, priority 2012, published 2015)
# Positions count from the first letter of the chain named. Names may count otherwise.
# B1: recombinant human S100A9 (wild type, homodimer) (ligand)
# chain: MTCKMSQLERNIETIINTFHQYSVKLGHPDTLNQGEFKELVRKDLQNFLKKENKNEKVIEHIMEDLDTNADKQLSFEEFIMLMARLTWASHEKMHEGDEGPGHHHKPGLGEGTP
# notes: Uniprot P06702; used as a homodimer; also called S100A9 wt; S100A9-wt
# B2: control peptide 63-79 5A of S100A9 (E64A, D65A, K72A, Q73A, E77A) (peptide)
# peptide: MAALDTNADAALSFAEF
# notes: Chemically synthesized control peptide, molecular weight 1758 g/mol; Positions follow the numbering of full-length S100A9 ('nomenclature of S100A9 maintained'); also called 63-79 A5; 63-79 AS
# B3: S100A8/S100A9 (N69A): recombinant human S100A8/S100A9 with S100A9 EF hand II mutation N69A, prevents tetramer formation (protein)
# chain 1: MLTELEKALNSIIDVYHKYSLIKGNFHAVYRDDLKKLLETECPQYIRKKGADVWFKELDINTDGAVNFQEFLILVIKMGVAAHKKSHEESHKE
# chain 2: B1 chain with N69A
# B4: S100A8/S100A9 (E78A): recombinant human S100A8/S100A9 with S100A9 EF hand II mutation E78A, prevents tetramer formation (protein)
# chain 1: B3 chain 1
# chain 2: B1 chain with E78A
# Assays:
# his-tagged rhTLR4/MD2 [1] = biological target: T1, his-tagged rhTLR4/MD2 (human, UniProt O00206 24-631; Q9Y6Y9 19-160); test: modified S100A9 ELISA, TLR4/MD2 coated on the plate, 2 ug/ml S100A9, absorbance at 450 nm
# T1 construct: Bought recombinant human complex (carrier free, R&D SYSTEMS), his-tagged; In the pull-down it was captured by anti-His antibody on Protein A/G agarose; in the ELISA it was coated on the plate; also called TLR4/MD2 complex; TRLR4/MD2
# T1 sequence (O00206 24-631 limits assumed, chain 1 of 2): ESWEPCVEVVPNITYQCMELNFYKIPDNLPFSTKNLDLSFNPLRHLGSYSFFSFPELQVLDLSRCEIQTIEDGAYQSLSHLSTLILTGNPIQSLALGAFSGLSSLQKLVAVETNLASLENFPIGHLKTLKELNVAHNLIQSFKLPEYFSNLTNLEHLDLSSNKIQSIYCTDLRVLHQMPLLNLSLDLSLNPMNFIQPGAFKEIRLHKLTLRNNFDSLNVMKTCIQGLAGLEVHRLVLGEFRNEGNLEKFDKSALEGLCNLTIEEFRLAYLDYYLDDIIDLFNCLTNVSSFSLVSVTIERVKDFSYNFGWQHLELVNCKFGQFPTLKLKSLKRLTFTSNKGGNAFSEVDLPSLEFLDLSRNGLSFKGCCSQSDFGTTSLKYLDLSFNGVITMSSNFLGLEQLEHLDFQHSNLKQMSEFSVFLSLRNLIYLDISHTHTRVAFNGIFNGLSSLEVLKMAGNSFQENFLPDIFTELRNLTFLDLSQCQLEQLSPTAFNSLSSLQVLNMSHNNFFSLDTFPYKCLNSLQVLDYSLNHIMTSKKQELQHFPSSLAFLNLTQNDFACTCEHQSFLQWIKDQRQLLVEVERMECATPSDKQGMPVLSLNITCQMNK
# T1 sequence (Q9Y6Y9 19-160 limits assumed, chain 2 of 2): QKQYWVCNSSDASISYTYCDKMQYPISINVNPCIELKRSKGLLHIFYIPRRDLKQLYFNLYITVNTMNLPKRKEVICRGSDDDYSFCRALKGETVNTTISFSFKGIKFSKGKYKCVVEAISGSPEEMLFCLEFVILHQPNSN
# Protocol: Binding of S100A9 proteins to TLR4/MD2 was analysed by a modified S100A9-ELISA. Briefly, TLR4/MD2 was coupled to the wells of a 96-well plate and served as capturing molecule. After blocking of the unspecific binding sites by PBS/5% skim milk powder plates were washed three times. S100A9-wt or mutant S100A9 proteins were added at a concentration of 2 μg/ml each in the presence and absence of 100 μM Calcium and incubated for two hours at room temperature. Unbound S100A9 was removed by washing the plates for three times followed by the addition of a primary anti-S100A9-antibody (1 μg/ml, polyclonal, rabbit). After a washing step the secondary anti-rabbit-IgG-antibody coupled to HRP (1 μg/ml from Cell Signalling) was added. TMB was used as substrate for HRP to quantify binding by absorbance readings at 450 nm in an ELISA reader (Anthos Mirkosysteme).
# his-tagged rhTLR4/MD2 [2] = biological target: T1, his-tagged rhTLR4/MD2; test: pull-down on beads carrying TLR4/MD2, MALDI-TOF mass spectrometry of the eluate
# Protocol: Anti-His antibody (5 μL, 0.5 mg/mL, Invivogen) and his-tagged rhTLR4/MD2 (5 μL, 1 mg/mL, carrier free, R&D SYSTEMS) were mixed and coupled to Protein A/G Agarose (50 μl, Pierce, Thermo Scientific). Trypsin digested peptides of S100A9 were added for 3 h at 4° C. in the presence of 1 mM Calcium. After washing of the beads in HBS/1 mM Ca-buffer for three times bound peptidic fragments were eluted by addition of 10 mM TRIS/2 mM EDTA-buffer and analysed by ESI-QIT- and MALDI-TOF-mass spectrometry. Identical experiments were performed to analyze the binding of the chemical synthesized peptides of S100A9 (aa63-79), S100A8 (aa55-71) and the corresponding control peptides aa63-79 AS and aa55-71 A3.
# human monocytes = test: Stimulation of human monocytes, TNFα release quantified by ELISA; format: cell-based; settings: human monocytes stimulated for four hours; TNFα by ELISA; FIG. 1
# From the text: Using standard techniques known in the art, the inventors expressed the individual human proteins S100A8 and S100A9 in recombinant form, and purified them. After generating homodimers and heterodimers, they analysed the properties of the complexes. FIG. 1 illustrates the stimulation of human monocytes for four hours with the indicated concentrations of (A) recombinant human S100A8, recombinant human S100A9 or human S100A8/S100A9, and (B) recombinant human S100A8/S100A9, recombinant human S100A8/S100A9 (N69A) or S100A8/S100A9 (E78A). TNFα released into the culture medium was quantified by means of ELISA.
# Monocytes were isolated from human buffy coats by Ficoll-Paque and subsequent Percoll density centrifugation (Pharmacia, Freiburg, Germany) Cells were cultured in Teflon bags (Biofolie 25; Heraeus Instruments, Hanau, Germany) using McCoy's 5a medium supplemented with 15% fetal calf serum for 1 day before stimulation. Monocytes were incubated for 4 hours with different dosis of hS100A8, hS100A9, hS100A8/S100A9 or the modified proteins as indicated in the figures and TNF-α concentrations in supernatants were determined by ELISA (OptEIA, BD Biosciences, Germany).
# Release of cytokine TNF-α was measured in the culture supernatants by ELISA (OptEIA, BD Biosciences). […]
# [3] = tested on: (S100A8/S100A9)2 tetramers; test: Formation of (S100A8/S100A9)2 tetramers after site directed mutagenesis; set-up: species or system human; settings: mutation in second calcium binding EF hand of S100A9
# Protocol: For the expression of recombinant (rec) proteins without additional peptide sequences, the cDNAs from wt S100A8, wt S100A9 and the S100A9 EF-hand mutants were cloned into the pET11/20 vector [50-NdeI; 30-BamHI]. […] Bacteria were grown at 37° C. in 2×YT for 24 h. Afterwards bacteria were harvested, lysed and the inclusion bodies (IB) prepared. The IB pellet was dissolved in 8 M urea buffer and to establish proper refolding samples were adjusted to pH 2.0-2.5 first by adding hydrochloric acid. After 60 min incubation at room temperature, samples were stepwise dialyzed to get adapted to pH 7.4 for refolding in the presence of 2 mM DTT. After centrifugation (10 min, 60,000 g, 4° C.) to pellet aggregated material, samples were further dialyzed and applied to anion exchange column and gel filtration chromatography. To prepare heterodimeric complexes the recombinant proteins were mixed 1:1 in equimolar concentrations first. Samples were stored as stock solutions at −20° C. Correct refolding and complex formation was assessed by SDS-PAGE, CD spectroscopy, MALDI-MS and ESI-MS.
molecule,measurement,setting,value
B1,binding result,his-tagged rhTLR4/MD2 [1],binds
B2,binding result,his-tagged rhTLR4/MD2 [2],no binding
B3,activation of monocytes (TNFα released into the culture medium),human monocytes,activation of monocytes that is comparable to the activation caused by homodimers
same,tetramer formation,[3],inhibition of tetramer formation
B4,activation of monocytes (TNFα released into the culture medium),human monocytes,activation of monocytes that is comparable to the activation caused by homodimers
same,tetramer formation,[3],inhibition of tetramer formation
